The results in this text go back to patent publication US20160151452A1.

Assay [1] concerns the target EphB2-Fc. Nature of the assay: SPR competition on immobilised EphB2-Fc; competitor ephrinB2-Fc 246 nM.
Assay [2] has as its target EphB2 transiently expressed in DU145 cells. Nature of the assay: cell-based or functional assay.
Assay [3] addresses EphB2-Fc. Nature of the assay: SPR competition on immobilised EphB2-Fc; competitor ephrinB2-Fc 246 nM preincubated with 0-1020 nM GST-Azu 88-113.
The target in assay [4] is EphB2-Fc. In words: SPR, 100 nM analyte over immobilised EphB2-Fc.
Assay [5] has as its target EphB2-Fc. In words: SPR titration (0.05-100 nM) on immobilised EphB2-Fc, Langmuir 1:1 fit.
The target of assay [6] is EphB2-Fc. Nature of the assay: SPR competition on immobilised EphB2-Fc; competitor ephrinB2-Fc 246 nM preincubated with 0-1020 nM azurin.
The next assay concerns the target EphA6-Fc. Nature of the assay: SPR, azurin immobilised on CM5 chip, 100 nM Eph-Fc injected.
The target of assay [7] is EphB2-Fc. The description is as above.
In assay [8] the target is EphB2-Fc. Nature of the assay: SPR titration on immobilised EphB2-Fc, Langmuir 1:1 fit.

pKd: −log10 of the molar value.

Chain of GST-Azu 88-113 (P08515 1-218, tags or fused parts left off): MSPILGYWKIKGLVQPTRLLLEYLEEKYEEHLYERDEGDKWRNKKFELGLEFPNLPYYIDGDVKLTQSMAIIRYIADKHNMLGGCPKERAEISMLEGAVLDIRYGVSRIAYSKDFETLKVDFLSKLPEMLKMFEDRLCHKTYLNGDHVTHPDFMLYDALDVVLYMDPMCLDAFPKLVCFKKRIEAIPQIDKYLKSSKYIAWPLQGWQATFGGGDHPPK
Chain of ephrinB2-Fc (Fc fusion) (P52800 29-232): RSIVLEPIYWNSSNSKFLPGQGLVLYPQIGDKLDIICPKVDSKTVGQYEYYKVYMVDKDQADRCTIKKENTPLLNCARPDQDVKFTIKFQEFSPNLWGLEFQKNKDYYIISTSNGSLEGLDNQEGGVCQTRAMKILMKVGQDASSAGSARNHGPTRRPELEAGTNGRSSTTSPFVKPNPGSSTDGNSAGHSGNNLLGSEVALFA
Chain of azurin from Pseudomonas aeruginosa (P00282 21-148 limits assumed): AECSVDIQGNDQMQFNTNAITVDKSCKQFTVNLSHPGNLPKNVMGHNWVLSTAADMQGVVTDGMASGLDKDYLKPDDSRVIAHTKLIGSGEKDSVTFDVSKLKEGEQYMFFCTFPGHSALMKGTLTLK
Chain of EphB2-Fc (P54763 19-543): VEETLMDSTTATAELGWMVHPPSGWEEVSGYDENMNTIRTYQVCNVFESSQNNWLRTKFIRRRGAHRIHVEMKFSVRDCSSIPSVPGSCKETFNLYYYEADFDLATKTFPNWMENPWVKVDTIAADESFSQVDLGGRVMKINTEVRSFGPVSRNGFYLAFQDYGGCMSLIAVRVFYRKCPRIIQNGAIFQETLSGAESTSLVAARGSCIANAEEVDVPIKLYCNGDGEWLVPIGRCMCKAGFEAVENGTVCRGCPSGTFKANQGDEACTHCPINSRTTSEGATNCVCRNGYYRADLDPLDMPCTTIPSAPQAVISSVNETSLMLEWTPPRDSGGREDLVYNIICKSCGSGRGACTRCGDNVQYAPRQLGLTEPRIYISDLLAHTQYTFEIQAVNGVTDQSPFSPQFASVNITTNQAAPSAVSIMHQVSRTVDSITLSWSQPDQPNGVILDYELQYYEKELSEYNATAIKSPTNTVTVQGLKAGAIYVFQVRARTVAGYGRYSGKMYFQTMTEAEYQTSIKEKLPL
Chain of glutathione S-transferase (GST) (P08515 whole entry): as the sequence (P08515 1-218, tags or fused parts left off) above
Chain of GST-Azu 36-89 (P08515 1-218, tags or fused parts left off): as above
Chain of EphA6-Fc (Q9UF33 whole entry): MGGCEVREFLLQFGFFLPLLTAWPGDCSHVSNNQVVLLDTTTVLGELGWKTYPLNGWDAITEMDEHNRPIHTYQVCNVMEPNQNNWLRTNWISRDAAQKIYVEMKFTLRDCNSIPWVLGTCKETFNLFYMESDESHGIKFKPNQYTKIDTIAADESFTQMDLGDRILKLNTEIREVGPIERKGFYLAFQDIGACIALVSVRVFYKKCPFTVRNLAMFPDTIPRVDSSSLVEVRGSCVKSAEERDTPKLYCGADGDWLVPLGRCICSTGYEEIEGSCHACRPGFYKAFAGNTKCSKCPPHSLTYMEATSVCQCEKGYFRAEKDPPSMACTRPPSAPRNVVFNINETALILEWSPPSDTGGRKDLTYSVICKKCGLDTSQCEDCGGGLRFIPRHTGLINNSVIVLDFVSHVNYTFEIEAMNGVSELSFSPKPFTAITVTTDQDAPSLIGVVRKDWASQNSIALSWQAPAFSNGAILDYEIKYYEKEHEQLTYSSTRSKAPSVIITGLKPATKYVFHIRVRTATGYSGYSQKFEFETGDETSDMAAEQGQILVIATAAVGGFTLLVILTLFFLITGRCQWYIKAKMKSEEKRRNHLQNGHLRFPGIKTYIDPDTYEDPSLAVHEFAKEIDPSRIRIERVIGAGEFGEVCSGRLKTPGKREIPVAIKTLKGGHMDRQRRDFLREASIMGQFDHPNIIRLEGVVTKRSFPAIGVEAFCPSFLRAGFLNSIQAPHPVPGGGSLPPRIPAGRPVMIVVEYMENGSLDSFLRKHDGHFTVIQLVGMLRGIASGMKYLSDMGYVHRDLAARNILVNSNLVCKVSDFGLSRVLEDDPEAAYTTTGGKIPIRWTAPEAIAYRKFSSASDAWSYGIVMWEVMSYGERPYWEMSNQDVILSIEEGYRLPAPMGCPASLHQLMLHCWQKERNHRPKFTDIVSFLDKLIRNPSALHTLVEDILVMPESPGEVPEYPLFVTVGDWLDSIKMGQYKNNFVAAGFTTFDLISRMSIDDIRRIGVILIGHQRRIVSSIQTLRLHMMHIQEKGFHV

For “GST-Azu 88-113 (from UniProt P08515 1-218)”, in the assay with EphB2-Fc [1], the level at which the inhibition levels off was in the range of 40 to 50%. Besides, in [2], the decrease in phosphotyrosine level on cotreatment with ephrinB2 (lane 11 against lane 8) was 21%, the decrease in phosphotyrosine level on cotreatment with ephrinB2 (lane 12 against lane 9) was found to be 42% and the decrease in phosphotyrosine level on cotreatment with ephrinB2 (lane 13 against lane 10) was determined as 45%. In the assay with EphB2-Fc [3], the reduction of total protein binding to the surface is less than 60%.
With “azurin from Pseudomonas aeruginosa (from UniProt P00282 21-148)”, the Req in RU in the assay with EphB2-Fc [4] was 427 RU. The substance further returned a level at which the inhibition levels off with EphB2-Fc [1] of 40 to 50%. This substance showed a pKd with EphB2-Fc [5] of 8.22. Further, the lower level of tyrosine phosphorylation with azurin plus ephrinB2 than with ephrinB2 alone in assay [2] fell in the range of 30 to 40%. Moreover, the reduction of total protein binding to the surface with EphB2-Fc [6] is less than 60%. The Req (saturating resonance) came to 1200 RU with EphA6-Fc and 1250 RU with EphB2-Fc [7].
As for “GST-Azu 36-89 (from UniProt P08515 1-218)”, the Req in RU with EphB2-Fc [4] was determined as 57 RU.
“glutathione S-transferase (GST) (from UniProt P08515 1-218) (enzyme)” displayed a Req in RU with EphB2-Fc [4] of 14 RU. In addition, the pKd with EphB2-Fc [8] is less than 6.80.
For ephrinB2-Fc (Fc fusion), in the assay with EphB2-Fc [4], the Req in RU was determined as 159 RU. Further, the pKd in the assay with EphB2-Fc [5] and with EphB2-Fc [8] was 7.52 in each case.
